From article PMC6761829 (Nature structural & molecular biology, 2019)
Where no end group is shown, it is not given here.

B1: Full-length Drosophila melanogaster spastin with a Walker B mutation (E583Q) (enzyme, UniProt Q8I0P1 1-758, looked up)
chain: MVRTKNQSSSSSASSSSTKSPIKSSSGAGSSGGGLGGRQSTHRSSSASNVAAVVAGGSSAAGGGSSSNRRSPGSSPDGDDDTTTTDDLTPTTCSPRSGHHHSYGGYSSSVHKQNLYVVSFPIIFLFNVLRSLIYQLFCIFRYLYGASTKVIYRPHRRDCNIEIVVQNSSKEQQQSLNHPSELNREGDGQEQQLSNQPQRFRPIQPLEMAANRPGGGYSPGPGDPLLAKQKHHHRRAFEYISKALKIDEENEGHKELAIELYRKGIKELEDGIAVDCWSGRGDVWDRAQRLHDKMQTNLSMARDRLHFLALREQDLQMQRLSLKEKQKEEAQSKPQKTREPMLAGMTNEPMKLRVRSSGYGPKATTSAQPTASGRKLTIGSKRPVNLAVANKSQTLPRNLGSKTSVGAVQRQPAKTAATPPAVRRQFSSGRNTPPQRSRTPINNNGPSGSGASTPVVSVKGVEQKLVQLILDEIVEGGAKVEWTDIAGQDVAKQALQEMVILPSVRPELFTGLRAPAKGLLLFGPPGNGKTLLARAVATECSATFLNISAASLTSKYVGDGEKLVRALFAVARHMQPSIIFIDQVDSLLSERSSSEHEASRRLKTEFLVEFDGLPGNPDGDRIVVLAATNRPQELDEAALRRFTKRVYVSLPDEQTRELLLNRLLQKQGSPLDTEALRRLAKITDGYSGSDLTALAKDAALEPIRELNVEQVKCLDISAMRAITEQDFHSSLKRIRRSVAPQSLNSYEKWSQDYGDITI
B2: VGSEEEEEEEEEE peptide labeled with Atto488 (peptide)
peptide: Atto488-VGSEEEEEEEEEE

Legend:
AUC = target: the molecule itself; assay: AUC
[1] = target: B1; assay: AUC

Row | Binder | stoichiometry N (AUC) | binding result [1]
1 | B1 | 6 | 
2 | B2 |  | binds
